Assay results published in the supplement of paper PMC10567573.
± gives the standard deviation.

Assay: protein stability index of a GFP-peptide fusion (GPS, HEK-293T) (PSI 1-6); higher = more stable
[1] = treatment: DMSO, c terminus: a fixed tail appended
[2] = treatment: MLN4924 1 uM, 8 h, c terminus: a fixed tail appended
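Also: 24-mer peptide tiles fused after GFP, lentivirally expressed, FACS-sorted into six equal bins by GFP/DsRed ratio, decoded by Illumina sequencing, PSI is the read-weighted mean bin number.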

| Sequence | protein stability index [1] | protein stability index [2] | protein stability index (treatment: DMSO, c terminus: native) | protein stability index (treatment: MLN4924 1 uM, 8 h, c terminus: native) |
| --- | --- | --- | --- | --- |
| SRVTASSGITIPKPPKPPDKPLMP [SMARCE1] | 3.78 ± 0.25 | 3.94 ± 0.18 |  |  |
| SSAPDLMCLSPDRKMEVEELSPLA [CDC25B] | 5 ± 0.37 | 5 ± 0.22 |  |  |
| SSGGSSGSSSDNRTYRYSNRYCGG [DYRK1B] | 4.04 ± 0.23 | 4.07 ± 0.12 |  |  |
| SSKTITAEIPDGPPVVAHYDMSDT [C18orf25] | 5.14 ± 0.14 | 4.96 ± 0.23 |  |  |
| SSRDKLTEMAASSQGNFEGNFESL [FUNDC2] | 4.88 ± 0.28 | 5.03 ± 0.42 |  |  |
| SSRSTVPTPAKRRSSALWSEMLDI [NET1] | 2.62 ± 0.25 | 2.96 ± 0.46 |  |  |
| SSSSASADLLAGFGGSFMAPSPSP [SNAP91] | 4.24 ± 0.1 | 4.3 ± 0.24 |  |  |
| SSSSSSSWLTRRAIRPENRAPGAG [EMD] | 4.33 ± 0.25 | 4.16 ± 0.25 |  |  |
| STRWEVIAEDGTKEIESQGSIPGF [TAF7L] | 4.58 ± 0.067 | 4.54 ± 0.3 |  |  |
| SYAFGKFPTVVWTWWIMFLSTFSV [SOAT1] | 2.98 ± 0.57 | 2.97 ± 0.29 |  |  |
| SYPVMGFEFQVRVCDSCYDSIKDE [WDFY1] | 2.76 ± 0.18 | 3.06 ± 0.39 |  |  |
| SYSRLCRESGAEPQEAVLQQLHQL [LRRC45] | 3.71 ± 0.29 | 3.71 ± 0.19 |  |  |
| TAAASRERQEEQSAAIHISETLEQ [EPB41L3] | 5.5 ± 0.061 | 5.4 ± 0.52 |  |  |
| TAHMLGVRELRIAFREFDRDRDGR [CABP4] | 3.68 ± 0.34 | 3.7 ± 0.076 |  |  |
| TAKNSRVVCGMFGFPGERTYNTKV [LOXL2] | 2.6 ± 0.3 | 2.63 ± 0.067 |  |  |
| TALLGGPRRCHSAPPQGSCGDELP [PLEKHN1] | 4.1 ± 0.3 | 4.45 ± 0.47 |  |  |
| TAQHQRRLAAIAQEKDQEMERLRE [FBF1] | 5.36 ± 0.17 | 5.42 ± 0.14 |  |  |
| TARAHPAKARDLYKGRQLQGCPGA [SMOC2] | 3.23 ± 0.64 | 4.41 ± 0.57 |  |  |
| TAYIRVKVDGPRSPSYGRSRSRSR [SRSF1] | 3.75 ± 0.21 | 4 ± 0.29 |  |  |
| TCISELRMLQREGCFRSQGASLRL [M1AP] | 2 ± 0.29 | 2.19 ± 0.37 |  |  |
| TCQKFLIQYNRRQLLILLQNCTDE [POP5] | 2.73 ± 0.31 | 2.36 ± 0.21 |  |  |
| TCVVPFDSEEEVIERANNVKYGLA [ALDH8A1] | 4.29 ± 0.33 | 4.41 ± 0.23 |  |  |
| TCVYIAEIAPQHRRGLLVSLNELM [SLC2A12] | 2.73 ± 0.6 | 2.46 ± 0.56 |  |  |

| Sequence | protein stability index [1] | protein stability index [2] | protein stability index (treatment: DMSO, c terminus: native) | protein stability index (treatment: MLN4924 1 uM, 8 h, c terminus: native) |
| --- | --- | --- | --- | --- |
| TDGDHNVYPRPPEPREFSSRNFGV [ZC2HC1C] | 3.89 ± 0.23 | 3.97 ± 0.18 |  |  |
| TDGRSPRRSRDPGYDHLWDETLSS [PLEKHN1] | 4.33 ± 0.24 | 4.45 ± 0.23 |  |  |
| TDIDIDTLCAVLERDTLSIRESRL [BTBD1] | 2.84 ± 0.2 | 3.15 ± 0.37 |  |  |
| TDSDDDFDMSRYSSSGYSSAEINQ [FAM219A] | 5.04 ± 0.21 | 5.22 ± 0.37 |  |  |
| TDYINASFMDGYKQKNAYIGTQGP [PTPN9] | 2.94 ± 0.24 | 3.21 ± 0.21 |  |  |
| TEFRKGAQSLPGPCAAAREGRLER [IRX6] | 4.53 ± 0.17 | 4.62 ± 0.21 |  |  |
| TENRYCVQLSQIQGLIGSVEEQLA [KRT17] | 3.1 ± 0.51 | 3.24 ± 0.22 |  |  |
| TGEIMHALKMTWHVHCFTCAACKT [PDLIM7] | 2.69 ± 0.33 | 2.27 ± 0.25 |  |  |
| TGLSMIANGGAICAVTFFTILLSY [OR4A15] | 2.85 ± 0.28 | 3.16 ± 0.38 |  |  |
| TILLDGRRVRLELWDTSGQGRFCT [RAB40C] | 2.16 ± 0.2 | 2.14 ± 0.34 |  |  |
| TISSWRNDRMSTRHDGYATNDGNH [RBMY1A1] | 3.99 ± 0.23 | 4.02 ± 0.086 |  |  |
| TKQWTLIAKHLKGRLGKQCRERWH [MYBL2] | 2.51 ± 0.68 | 2.26 ± 0.38 |  |  |
| TLAGVGAQGAALEDPDYYGQEIWS [CPXM2] |  | 3.96 ± 0.11 |  |  |
| TLHQRTHTEERPFKCNYCGKSFRQ [ZNF449] | 2.55 ± 0.33 | 2.91 ± 0.51 |  |  |
| TLLAIGTKLPENQAIQMRLVDVAC [INTS4] | 2.12 ± 0.19 | 2.09 ± 0.15 |  |  |
| TLLQDHENQRLFEMLGRKCLTLAT [WAS] | 2.37 ± 0.29 | 2.33 ± 0.28 |  |  |
| TLQNGRRHIHHLGNQLQLNQHCLD [BRF1] | 3.1 ± 0.034 | 3.31 ± 0.097 |  |  |
| TLVQDLANAFQQEAQTSGKERLLL [CHIT1] | 3.16 ± 0.3 | 2.91 ± 0.19 |  |  |
| TMLKAMFSGRMEVLTDSEGWILID [KCTD10] | 2.51 ± 0.57 | 2.75 ± 0.46 |  |  |
| TNLVLPSNGSMHNYCPQQTKITSA [EDNRA] | 3.75 ± 0.13 | 3.63 ± 0.14 |  |  |
| TNTGPAGSSASTSPAPLDTCPSSS [DYRK1B] | 5.24 ± 0.17 | 5.31 ± 0.18 |  |  |
| TPATTTEPPKPTFPAYTQSTASTT [ZNF207] | 4.99 ± 0.12 | 5.1 ± 0.15 |  |  |
| TPTPQALYPDLSCPEGLEELLSAP [SPSB2] | 4.54 ± 0.24 | 4.55 ± 0.3 |  |  |

| Sequence | protein stability index [1] | protein stability index [2] | protein stability index (treatment: DMSO, c terminus: native) | protein stability index (treatment: MLN4924 1 uM, 8 h, c terminus: native) |
| --- | --- | --- | --- | --- |
| TQEPIFTFTASFSGKVFPFFAVWK [TRIM15] | 3.19 ± 0.36 | 2.89 ± 0.66 |  |  |
| TQIGFADLMGVLTKGVREVERALQ [FEM1A] | 2.29 ± 0.61 | 2.28 ± 0.45 |  |  |
| TQQFKAEKLKEKLKMKEREEAWVK [PPP2R5C] | 3.26 ± 0.64 | 3.72 ± 0.62 |  |  |
| TQRPAMVQTEDQYQFSYRAALEYL [PTPRD] | 2.91 ± 0.35 | 3.06 ± 0.31 |  |  |
| TRCKSSEEKKPGELKRLVESRRQQ [TRIM39] | 5 ± 0.32 | 5.02 ± 0.27 |  |  |
| TSGKRYVYRFVCDLQNLLGFTPEE [ETS2] | 2.56 ± 0.63 | 2.89 ± 0.84 |  |  |
| TSRAPSTYTYTSRPRALPCQRSRY [RSPH3] | 3.65 ± 0.15 | 3.84 ± 0.31 |  |  |
| TSVEECSQKGCLALSLLELLGFNL [CLCN6] | 2.57 ± 0.68 | 2.37 ± 0.15 |  |  |
| TSYTRQACLVSCFQQLMVETCSCG [SCNN1D] | 2.48 ± 0.53 | 2.31 ± 0.27 |  |  |
| TTGSKELDKLLQGGIETGSITEMF [RAD51] | 3.51 ± 0.27 | 3.76 ± 0.51 |  |  |
| TTSETQKSVQCGTWTKHAEGGIFT [NETO1] | 3.59 ± 0.085 | 3.62 ± 0.23 |  |  |
| TTTSAATATTAPPALDIFGDLFES [SNAP91] | 4.47 ± 0.1 | 4.68 ± 0.16 |  |  |
| TVCGDLHGQLDDLIFIFYKNGLPS [PPEF2] | 2.87 ± 2.1 | 1.94 ± 0.41 |  |  |
| TVECYNPRTNEWTYVAKMSEPHYG [KLHL13] | 2.36 ± 0.1 | 2.52 ± 0.72 |  |  |
| TVPGQALACGSNRFNKLGLDHLSL [NEK8] | 2.44 ± 0.34 | 2.45 ± 0.12 |  |  |
| TVTSVSCCHGNTLLAVRSVTDEPV [NEK8] | 3.21 ± 0.23 | 3.14 ± 0.33 |  |  |
| TVYKARDPHSGHFVALKSVRVPNG [CDK4] | 2.31 ± 0.48 | 2.68 ± 0.49 |  |  |
| TWGKNKPGIGAVILKRFCWLLLQ [FAN1] |  |  | 3.45 ± 0.45 | 2.87 ± 0.53 |
| TWHDERFLYMLMEYVPGGELFSYL [PRKX] | 2.85 ± 0.7 | 2.75 ± 0.35 |  |  |
| TYVGALFNGLTLLLMAVVSMFTLP [RTN1] | 3 ± 0.58 | 3.43 ± 0.38 |  |  |
| VCGKSFSRTTCLFLHLRTHTEERP [ZNF8] | 2.23 ± 0.56 | 1.93 ± 0.38 |  |  |
| VDADAGHNAWLSYSLLPQSTAPGL [PCDHGC5] | 2.87 ± 0.33 | 3 ± 0.26 |  |  |
| VEKEEEPDPEPPPVTPQVGEGRKS [SMG5] | 5.48 ± 0.13 | 5.53 ± 0.21 |  |  |

| Sequence | protein stability index [1] | protein stability index [2] | protein stability index (treatment: DMSO, c terminus: native) | protein stability index (treatment: MLN4924 1 uM, 8 h, c terminus: native) |
| --- | --- | --- | --- | --- |
| VEVLGPYEPLLSRVQAALVWERPA [RETREG3] | 2.37 ± 0.39 | 2.48 ± 0.24 |  |  |
| VFSDTATPDIKSHYAFRIFDFDDD [CIB1] | 3.19 ± 0.27 | 3.18 ± 0.42 |  |  |
| VFYLWSAIEIFRYSFYMLTCIDMD [HACD3] | 3.13 ± 0.15 | 3.5 ± 0.47 |  |  |
| VGGYGTRLRPLTLSTPKPLVDFCN [GMPPB] | 2.41 ± 0.16 | 2.46 ± 0.14 |  |  |
| VGIFHLMQIAVPCAFLLLRLLVGL [TMEM175] | 2.81 ± 0.45 | 2.82 ± 0.47 |  |  |
| VHQRTHTGEKPHTCSECGKGFIQK [ZNF649] | 3.67 ± 0.28 | 3.52 ± 0.58 |  |  |
| VIEAIAQITVKALPKPPGTPVVTE [PTPRD] | 2.3 ± 0.4 | 2.16 ± 0.27 |  |  |
| VIKYNVNDKFSFHEVKDNYIPVIK [RHOBTB3] | 2.21 ± 0.44 | 2.75 ± 0.34 |  |  |
| VKRLHEVGRTEPELLVAHAYTRYL [HMOX1] | 2.2 ± 0.26 | 2.4 ± 0.36 |  |  |
| VLENNLEAVARHMLIFSLALEEPE [DNAAF3] | 2.74 ± 1.1 | 2.52 ± 0.37 |  |  |
| VLEQEETAAASRERQEEQSAAIHI [EPB41L3] | 5.33 ± 0.24 | 5.16 ± 0.23 |  |  |
| VLGGFLYAVGGSDGTSPLNTVERY [KLHL20] | 2.18 ± 0.32 | 2.47 ± 0.22 |  |  |
| VLGIPLTLVMFQSLGERMNTFVRY [KCNK9] | 3.24 ± 0.65 | 2.83 ± 0.48 |  |  |
| VLSYLGLLSQEKLQEQHLSSPQGV [BCL2L13] | 2.29 ± 0.31 | 2.32 ± 0.38 |  |  |
| VLYLMMPIVNISEVLGPLCLMLLM [PHTF1] | 3.07 ± 0.62 | 2.67 ± 0.47 |  |  |
| VMKLEISPHRKRSDDSDEDEPCAI [DLC1] | 5.21 ± 0.52 | 4.93 ± 0.28 |  |  |
| VNKVCGAACSSKRSPIIDVKNDRD [SERPINB5] | 3.77 ± 0.33 | 3.89 ± 0.15 |  |  |
| VPGHQTPSDLDQFSDSSLIEDSQA [LURAP1L] | 5.39 ± 0.15 | 5.41 ± 0.17 |  |  |
| VPGHRSERAIRTQPKQLIVDDLKG [SPRY1] | 4.25 ± 0.34 | 4.13 ± 0.47 |  |  |
| VQEHARCVHPRGGVIQSVSSWKHG [C18orf25] | 3.08 ± 0.28 | 3.03 ± 0.4 |  |  |
